Assay results taken from patent publication US9309288B2, “Selective αvβ3 receptor peptide antagonist for therapeutic and diagnostic applications” (ADVANCED ACCELERATOR APPLICATIONS, priority 2005, dated 2016).

Target: αvβ3 (Homo sapiens, UniProt P05106+P06756)
Experiment: Cell adhesion assay, αvβ3 overexpressing K562 cells (Kαvβ3) on vitronectin
Format: cell-based
Design: expressed in transfected cells; host or cells: K562 (human erythroleukemia), gift of Dr. S. D. Blystone
Conditions: 10 μM peptide
Procedure: Cell Adhesion and Competitive Assay: Human erythroleukemia K562 cells, stably cotransfected with cDNA of αv or αIIb subunit and β3 or β5 subunits, were kindly provided by Dr. S. D. Blystone (SUNY Upstate Medical University, Syracuse, N.Y.). Cells were maintained in Iscove's Modified Dubecco's Medium (IMDM) supplemented with 10% heat-inactivated fetal bovine serum, 100 IU/ml penicillin, 50 μg/mL streptomycin and 500 μg/mL G418 in a humidified incubator with 5% CO2 at 37° C. […] Cells were used to determine affinity for αvβ3 and cross-reactivity with αvβ5 and αIIbβ3 integrin.
Briefly, 24-well flat-bottom plates were incubated overnight with 5 μg/mL vitronectin. The pre-coated plates were rinsed with PBS, incubated for 1 h at 23° C. with 1% heat-denatured bovine serum albumin, and rinsed again. Then, αvβ3 overexpressing K562 cells were incubated with various concentrations of cyclic RGD peptides or diluents for 1 h at 4° C. Peptide-treated cells (0.2-0.5×106/100 μL/well) were seeded onto pre-coated plates and allowed to adhere for 1 h at 37° C. in 5% CO2. Non-adherent cells were removed with gentle washing, whereas adherent cells were detached by trypsinization and counted. Three different adhesion assays were performed in duplicates.
All synthesized peptides were tested for their ability to inhibit cell adhesion to vitronectin. […]

Sequence of αvβ3 (P06756 31-889 limits assumed): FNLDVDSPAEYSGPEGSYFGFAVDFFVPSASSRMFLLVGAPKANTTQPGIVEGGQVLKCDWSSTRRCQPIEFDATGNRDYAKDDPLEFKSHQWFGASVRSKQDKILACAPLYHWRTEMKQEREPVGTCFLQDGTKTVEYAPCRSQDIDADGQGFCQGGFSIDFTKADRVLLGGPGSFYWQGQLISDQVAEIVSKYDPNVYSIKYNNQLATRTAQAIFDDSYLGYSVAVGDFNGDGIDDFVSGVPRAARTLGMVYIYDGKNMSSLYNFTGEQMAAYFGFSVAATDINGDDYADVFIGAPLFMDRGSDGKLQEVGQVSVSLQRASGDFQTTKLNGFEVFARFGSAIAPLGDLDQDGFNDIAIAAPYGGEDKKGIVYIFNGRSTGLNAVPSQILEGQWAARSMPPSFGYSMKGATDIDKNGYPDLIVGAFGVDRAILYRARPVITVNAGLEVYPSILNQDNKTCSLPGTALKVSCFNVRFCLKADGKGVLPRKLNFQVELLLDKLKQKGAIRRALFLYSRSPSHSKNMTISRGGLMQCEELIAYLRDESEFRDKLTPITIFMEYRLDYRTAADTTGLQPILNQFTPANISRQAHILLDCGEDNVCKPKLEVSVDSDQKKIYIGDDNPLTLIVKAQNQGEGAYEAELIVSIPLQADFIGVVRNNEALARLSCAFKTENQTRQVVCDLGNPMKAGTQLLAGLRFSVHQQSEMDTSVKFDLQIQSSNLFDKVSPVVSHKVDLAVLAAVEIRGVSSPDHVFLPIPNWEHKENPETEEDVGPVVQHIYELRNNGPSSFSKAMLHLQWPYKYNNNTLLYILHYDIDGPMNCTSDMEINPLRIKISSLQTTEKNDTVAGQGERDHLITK
Sequence of αvβ3 (P06756 891-1048 partner limits assumed): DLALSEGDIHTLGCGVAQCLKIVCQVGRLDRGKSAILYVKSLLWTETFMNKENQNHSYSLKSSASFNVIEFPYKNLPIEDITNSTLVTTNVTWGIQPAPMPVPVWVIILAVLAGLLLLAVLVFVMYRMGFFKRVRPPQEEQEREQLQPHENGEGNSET
Sequence of αvβ3 (P05106 27-788): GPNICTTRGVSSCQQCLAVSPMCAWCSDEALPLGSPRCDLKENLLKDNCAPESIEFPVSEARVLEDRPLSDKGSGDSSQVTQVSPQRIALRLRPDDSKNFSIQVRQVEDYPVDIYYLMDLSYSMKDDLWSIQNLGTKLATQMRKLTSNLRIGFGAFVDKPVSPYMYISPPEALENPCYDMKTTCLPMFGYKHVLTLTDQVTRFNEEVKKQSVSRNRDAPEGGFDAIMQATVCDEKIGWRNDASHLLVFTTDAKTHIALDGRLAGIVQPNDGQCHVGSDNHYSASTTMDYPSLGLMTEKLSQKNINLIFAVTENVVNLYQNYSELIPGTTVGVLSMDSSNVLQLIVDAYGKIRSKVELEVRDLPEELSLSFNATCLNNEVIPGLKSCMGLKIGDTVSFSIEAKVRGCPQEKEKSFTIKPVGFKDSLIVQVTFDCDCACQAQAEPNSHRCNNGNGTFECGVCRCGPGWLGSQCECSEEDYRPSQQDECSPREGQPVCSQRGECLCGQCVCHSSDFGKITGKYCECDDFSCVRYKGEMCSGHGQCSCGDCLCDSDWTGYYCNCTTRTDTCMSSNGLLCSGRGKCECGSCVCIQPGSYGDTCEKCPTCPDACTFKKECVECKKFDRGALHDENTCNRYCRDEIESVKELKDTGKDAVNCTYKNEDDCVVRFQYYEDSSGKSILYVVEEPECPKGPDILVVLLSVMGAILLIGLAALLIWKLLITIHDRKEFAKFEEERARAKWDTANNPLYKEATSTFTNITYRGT

Row | Substance | cell adhesion remaining as compared to untreated control cells
1 | RNPHKGPAT [echi 11-19] | 97.5%
2 | echi6-19: fragment of the RGDechi sequence (SEQ ID NO: 2) (MDDPGRNPHKGPAT) | 99.0%
